Source: patent US20240042051A1 (Novartis, published 2024)

T1: Human CD48 (recombinant, humanCD48 aa29-220) (human, UniProt P09326 29-220)
T1 construct: SPR analyte in solution; also called analyte human CD48; not shown: C-terminal tag (hFc1P, APP6-Avi or His)
T1 sequence: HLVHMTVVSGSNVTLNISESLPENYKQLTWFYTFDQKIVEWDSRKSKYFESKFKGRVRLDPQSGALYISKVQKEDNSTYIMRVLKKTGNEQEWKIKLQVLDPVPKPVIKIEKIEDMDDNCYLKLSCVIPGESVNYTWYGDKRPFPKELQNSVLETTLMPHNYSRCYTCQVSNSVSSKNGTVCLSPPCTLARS

T2: hCD48EC:mouse-Ig construct #2248 (ENYKQ modified into GSSKQ) (human, UniProt P09326 27-220, limits assumed)
T2 construct: extracellular domain; not shown: mouse IgG1 part of the fusion
T2 sequence (looked up): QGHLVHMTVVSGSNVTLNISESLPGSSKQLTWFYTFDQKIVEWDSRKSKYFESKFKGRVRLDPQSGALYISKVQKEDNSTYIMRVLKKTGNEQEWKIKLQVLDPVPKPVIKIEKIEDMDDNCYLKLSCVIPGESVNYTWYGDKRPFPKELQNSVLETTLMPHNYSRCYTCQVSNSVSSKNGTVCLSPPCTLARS


Tests used:
[1] = target: T1, Human CD48 (recombinant, humanCD48 …); test: SPR Biacore T200, antibody captured on protein A chip, CD48 as analyte, 25 °C, 1:1 model
Experimental: The anti-CD48 antibodies were diluted at 5 μg/ml and injected on flow cells 2 and 4 for 20 sec at 10 μl/min. Capture level for all antibodies was 370-440 RU. Flow cells 1 and 3 were left blank (no antibody captured) and used as a reference surface. Human and cynomolgus CD48 served as analytes in solution. […] After each cycle of antibody capture and analyte injection, the chip surface was regenerated with 10 mM Glycine-HCl pH 1.5 (Cytiva, ordering #BR100354) for 2×30 s at a flow rate of 50 μl/min. Three runs with duplicate measurements and buffer blank injections were performed. Measurements were executed at 25° C. and data collected at a rate of 10 Hz.
[…] The raw data were double referenced, i.e. the response of the measuring flow cells was corrected for the response of the reference flow cells (no antibody captured), and in a second step the response of a blank injection (buffer) was subtracted. Finally, the sensorgrams were fitted by applying a 1:1 interaction model with a constant fit of RI (0) and a global fit for Rₘₐₓ. Kinetic rate constants (kₐ, kd) and equilibrium dissociation constants (KD) were calculated. Data were processed separately for each run. The generated values were used to calculate average values and standard deviations of the respective equilibrium dissociation constants and the kinetic rate constants.

[2] = target: T2, hCD48EC:mouse-Ig construct #2248 (ENYKQ …); test: ELISA, HEK293T culture supernatant (1:10) with the CD48-mouse Ig construct, antibody at 25, 250 and 500 ng/mL, detection goat anti-mouse IgG (H+L) HRP, Mean OD450-570
Excerpt: Non-mutated CD48-mouse IgG fusion peptide served as positive control and non-transfected cell supernatant as negative control.

Kd [1] [nM] | koff [1] [s⁻¹] | kon [1] [M⁻¹ s⁻¹] | binding result [2] | Binder
0.5 | 0.00013 | 250000 |  | NY938 (antibody, human IgG1, kappa, V domains shown, also called anti-CD48 antibody NY938; NY938 IgG) VH: QVQLVQSGAEVKKPGASVKVSCKASGYTFTEYTMHWVRQAPGQGLEWMGGINPDTGDTSYNQKFTGRATLTVDKSTSTAYMELSSLRSEDTAVYYCARAQFWTTPRFAYWGQGTLVTVSS VL: DIQMTQSPSSLSASVGDRVTITCKASQDVGTAVAWYQQKPGKVPKLLIYWASTRHTGVPSRFSGSGSGTDFTLTISSLQPEDVATYYCQQYSTYPITFGQGTKLEIKR
10 | 0.00074 | 72000 |  | NY920 (antibody, human IgG1, kappa, V domains shown, also called anti-CD48 antibody NY920; candidate antibody NY920) VH: EVQLLESGGGLVQPGGSLRLSCAASGFTFSSFAMSWVRQAPGKGLEWVSAISGFGGSTYYADSVKGRFTISRDNSKNTLYLQMNSLRAEDTAVYYCARQFWEDQPFYFDYWGQGTLVTVSS VL: not shown
 |  |  | no binding (tested: 500 ng/mL) | humanized CD48A (antibody, V domains shown, Murine CD48A is clone MEM-102; also called control antibody CD48A) VH: QVQLVQSGSELKKPGASVKVSCKASGYTFTDFGMNWVRQAPGQGLEWMGWINTFTGEPSYGNVFKGRFVFSLDTSVSTAYLQISSLKAEDTAVYYCARRHGNGNVFDSWGQGTLVTVSS VL: EIVLTQSPDFQSVTPKEKVTITCRASQSIGSNIHWYQQKPDQSPKLLIKYTSESISGVPSRFSGSGSGTDFTLTINSLEAEDAATYYCQQSNSWPLTFGGGTKVEIKR
